Results: the DeepSol protein solubility set

Assay: soluble on expression in E. coli; label from the status in PepcDB or PDB records

Sequence | soluble on expression in E. coli
SDVIKTQQISARTIEKVIVHPLVLLSIVDHYNRVAKDTSKRVVGVLLGSSSRGTVDVTNSYAVPFEEDDKDTSIWFLDHNYHESMFHMFKRINAKEHIVGWYSTGPKLRENDLDVHALFNGYVPNPVLVIIDVQPKELGIPTKAYYAVEEVKENATQKSQQVFVHVPTEIAAHEVEEIGVEHLLRDVKDTTISTLATEVTAKLTALKGLDARLREIRTYLDLVIEGKLPLNHEILYHLQDVFNLLPNLNVNELVKAFAVKTNDMMLVIYLSSLIRSVIALHSLINNKLLNKEHEKAEDSKPVDIPLITES | soluble
MKRGEELPPLEIEVTRTLIVAGAIASRDYQDVHHDAESARRRGSPDIFMNILTTNGLVGRYITDHFGPGAVLRKVAIRLGAPNYPGDTMVLTGTVVEVEGDTATVKVIGANGIGTHVRGTVTVTVPPGSASLEHHHHHH | not soluble
MGKRKTKEDNASEDYDANELMIVPGEKRKKLEKSGEKSATGGKKNRNFAKEKEVAKLTKQAKRKLAAVQSRKALKQTQEELFAGLAEFQLDPSKLCQLSSSTKLSKEPEKAPVFPEKLKVFSGKTKTEAKRTQQDYYPTDDESSSEEEEEEEEGDNDIEDAGNTVEVKIEPIDLDDVDEAIDGNPETNLDQIVVKREDDEESDNEDILALPTTTVINRKKVIVERSKEIQKSRAELPIFAEEMRIVEAINENLVTVVCGETGSGKTTQIPQFLYEAGYASEGELIGITEPRRVAAIAMAQRVGVELAKPDEVSYQIRYEGTRSETTNILFMTDGVLMKEMEQDVMLKKYSVILIDEAHERSMYSDVLIGMLSRIVPLRSKTARPLRLVIMSATLRLDDFTHKKLFPLLTPKVIKVDARQFPVSVHFEKRTPDDYIASAFRKTCRIHETLPPGAILVFVTGQHEVKQLITKLKKRYPVVYETDKNGEVLVKGTKEWKEKKVEAAKSIKLEDFKEETPETEDFEDVDDGLMDGDDMNERGAAEAFDDYEEFENGDGDLSDGKVENSIGAPPADCEPLYCLPLYSLLSMGKQRRVFDETPAGMRLCVISTNVAETSLTIPGVKYVIDGGFEKRRLYDSITGVSRFAVCRISQASGDQRAGRAGRISAGHAYRLYSSAVYQDFVKFADPEILSKPADQLVLHLKSMNIVKVVNFPFPSAPDEQMLESAEKRLCRLGALSESTKNGKTEARITKLGKTLAVFPLAPSYAKFIAMADQHNLMSHAILLISLLSVREPLIPVSSLRGDTPEETKELMKNVLKERRRWCSHTGARRLGDLKVLMHAASVAEQIKYNARECEKVGLRVKALVEARKLRQQLTNIVNASCKKEHAAALDSDLPPPTDQQAQLLRQMVVASFSDRLARRVDRSVGQEEVQKGAYETTLIKGHVFIDPCSVVFTEEPEFVIYQELVQVNEKKLMTSVCAVDKEWLSRLAESYCNYGEQDKNQEPIYDPVKDMVVKTVKVTFGPLNWELPNENRSVPHDIMMYRYFALFLLDGLVFEKLKEYTPKLLAPPSTMVKSWAKLQKRTEMLLNKLIEKEVTTRSSLKEQWLKNENWLLEEYLEWVPESVHQQISLMWPPLEDHEKTIKMGRNKKY | not soluble
MAFSIMGILTIMEFLVYRDTRMKYEYEVDKDFTSKIRLNIDITVAMKCQYVGADVLDLAETMVTSAQGLAYQPVSLCSRTISNTSCGVSGKLWIQSTENVKVVTDAVSLVPNRLNSCSAGDI | not soluble
MGSDKIHHHHHHMDLGAPIGAHGNQPETEAATQCEIVLQGPTCGFPSWTRHCNIDCIRDFQPFDRLMKQGQRKTKLEFHNDGRLLAAQGDDICGPDLAFYRVTLSLQQRFDRGVEILFTFHPGHACPGSVSMAMCPRLIFMRNTMNRLLSRAQRSGDRRHALGHSGAVPATLRPFLSLICFCLVAVWMATPLRAACSGLDLRESAAPGMWAEIEAEIALTPFARGLSWVATRGDRRLHIIGTMHLNDPRHDALVAHMAPAIQAADAVLLEVNRADKARLERTLAETPSLIFITEGPTLIDRLPPEEWDEIAERAGAAGIPPFMAAKMRPWFLSLSMSVPLCARAIEDVTDGLDMKLMTLAERAGVETLSLEDPLGLFQLFDATPIEEQIKELRSYIAMAGVGADDFYTMVESYFDGEVQAYVLLQLKQFLTSESDLSVAERQAQVDDLLEALLYQRNRDWIPVIEATAGNRLVIAVGAAHLPGEAGVLALLEAEGYQIEEALR | not soluble
MAHHHHHHMDLVQLQRILSTHDERVVKVFVNHIPEVGLRKIDDCVLEYMLKMLEGQTSSESYLPEEIIEETMKLYFREFDVFSDSEEKLNKSTAAICQQMLKEGITKKPSEESSRLASAVNIGRQYEESLKRATMIKSVGKVTTANTNEDWTWETKRSAAKDMRKKRREDEKKAILAEEYEAFLRKRGISNTTAVTKIHHKGEGTNYSTDIRCEAIHIQLGKQVLLDDTDLVLLTGHKYGLIGRNGAGKTTLLRALAERELEGVSPFMQILHVEQEIVAGAETPLEVLLATDVERAQLLHEEQELLKQNDTEANTRLNEVYARLDAIDAHSAEARAATILHGLSFTQDMMTSPTKQLSGGWRMRVALARALFVEPDVLLLDEPTNHLDLFAVLWLEQFLRDWQKTLIVVSHSRTFLNNVCSEIIHLIGHHLHYYNGNYDQFEITRVEQERQQKKQHAAQEKQRAHIQAFIDKFRYNANRAKMAQSRIKALERMEMVADVVTDPQFAFTFPDAEPVSGSFIEMVDCEFGYKPGVSLFKDVNMGIDESSRIVLVGANGVGKSTFMNVCTGALEPRSGTVVRNKKIRVAHFAQHNMESLTPQLSSLEFLRSKFPHMEDQQLRAHLGSMGLSGERALQPIYTLSGGQKSRLVLAWITFQKPHLLLLDEPTNHLDIDTVNALIEALLAYNGGLLVISHDEYFITSLCDDIFVCEDNTVKKFDGDFAEYRKHVVKMMK | soluble
RNVDAALFGMISLYAQTKVIDTIIYGSDAGSKASIITAHPDEIAGRIIRELDRSATILPGKGAYSGRETSVVLCTVRKSEFARLKRIIHETDENAFVMVTETTEVIGLGFKDFSDAVQ | not soluble
EAAYSHTPLIMVSADRPERLHGTGANQTIEQRGIFNVVDTDHVVDITDLNSISFARNVIHINVALDVPLVDVLPEVGDPVERVREVIEVDHGEVVLNLNERILVVAGDEAWEVPGLEDVPTIAEPSAPAPYHPVHPLAAQIFAHKEIKPEHIVVVGHPTLHRAVLSLLADVPVTVLTKTDTITGNPQAVGSRVKVTGELDKRWLQICEDASTLCADRVKEVLEGH | not soluble
MSLNDQIKIRKATKEDWEKIYQLYNSLSDEDLYLRFFHLYRITEEDAKKIASNEDHVTFLAEVDGKVVGEASLHKDGEFSLVVHRNYRTLGIGTLLVKTLIEEAKKSGLSTVKFYTLPENTPMIKIGRKLGFKMRFYEDEVYGEMRLTERELNVNLATFSAPEGHHHHHH | soluble
MGSDKIHHHHHHMALRLRKENDLWVQTFKAAGQSHLHRVEEEVFLGKCDQEPDLNLELYKDNKAVTDLITQALGSEVEKLSLQFETDVQRTYHVFEADDTAIEVCLDDGAVKTATAQSKICEVEFELKQGAVKTLIQFAQQWINRYELWLDVRSKAERGNLLALGQAASPAVHAKNLNLDKNISAEQALKKIVENCLGQFLPNMAAIADGVAEAEHIHQARVSLRRLRSALKHFSAWSDELNPVWEEQIAELFRQLGDTRDEDAIRTEILPMIVQHGSPELLLPISEQPLKDLATLFKSADTIKLILALLAFAYSEEDNQNGKGKLKKQIGKSLDKLHHQVVSNADHFTELEVTEQHRTRKKAKQLRYCIEFISSLYPRKNIQQFLKQLQPVQNTLGLYNDLFIAEDLFNKAIEHDPHFWFALGWVKAKQPYLQNQSAEALQKFKQAKTFW | not soluble
MSLTSWNATIDPDNTIRFKEPDVLFDSGKSQVKERFKVVLDDFFPRYVKILSQEKYKGDIEEIRIEGHTSSEWLNAKTLEERYLGNAALSQARAFEVLKYCFALERIKGEQDWLIKVLRANGLSFAKPLDSEEHSRRVEFRTLTRSHQKMLKILDLSKEGHHHHHH | not soluble
MKLVCISDTHSLHRRIPEIPDGDVLIHAGDSLGQGSLENIEDLNDWLGTLPHRHKIVIAGNHDWAFQEMPGEARTALSNAVYLEDSGVEIEGNRFWGSPWTPTFMDWAFMLERGEPLYQKWQLVPDNTDVLITHGPPKGIGDEANLGFKCQNVGCVDLLARIHQLSLKAHIFGHIHEGYGEYLRGKTRLINASTCTARYEPRNAPIVVDVLEHHHHHH | not soluble
MAQVRQEIAREQEKAARLARNLAKYLSPQVWEMIFSGKKSVRLETQRKKLTVFFSDIRGFTELSEELEAEALTDLLNNYLNEMSKIALKYGGTIDKFVGDCVMVFFGDPSTQGAKKDAVAAVSMGIAMRKHMKVLRQQWRAQGITKPLEIRMGINTGYCTVGNFGADTRMDYTIIGREVNLASRLESASEAGEILISHETYSLIKDVIMCRDKGQIAVKGFSRPVQIYQVVDSRRDLGAAPSYVEHELPGFSMYLDTNNIQNYDKERVIQALQQAAER | not soluble
MGSDKIHHHHHHMWIWQQADWPKFHWNTSSIDALLRQVYFNQGQLLGKQMLSHDDSLLTSDAALDTLLANIIHSSAIEGEKLNAASVRSSLAKKLGVTEDKPYPTTAQTDGLADIMLDALKNLETELTLERILGWHQQLFPQGYTLFNPVIGGTLRGDTPMQVVSGRIDKPTVHFEAPSRATLDAELSQFIEWFNASRQDLGLDPLIRAAITHLWFVTLHPLDDGNGRITRLLTDLALAQAEKRSIRFYAMSVSILARRQAYYDILESTQRGDVDITPWLVWFFETLNDCLLNAMADVSRTLSKTQYWQSVDQSLLSQEQAKVLNRMLDGDFELGINSSQYQKVAKVSRATATRHLAQMVEQRFLVKADAGGRSTRYLLPSGK | not soluble
MSLNNPTPKIDQTNNIVIGQKINPDKMHRAKEFRRQMTPAEKILWQHLRGNRLNGLHFRRQQIIDGFIADFYCHAARLVIEVDGKIHELQAEYDAERDRVLLARGLRLLRVKNEEVVQEIDQVLMLISEVCCEETEGHHHHHH | soluble
GPGSMRAEETAPSIPPPPTISPQKTSHRTAVVPSDPSNRPTQSLRSTKELMRQRRSTVVPRITDIFALGQLHEKGERVGSRNVCPPTWKQRMSLAGQFTTFCRTHEQPINEKSCAVILMAILDVAPSTRPQHARMLRSVLRMDRTPLDMMILGLKETAARSETKQQRQQSRAIYRRCACASSGRNSMAPPMRTTVNENETARTLRRSCFSATK | soluble
MSLRQFWFTMVKVDGTSMQPNLQNNERVVAFKTSKIKAGSVVVFNAYGLDPNQTDKNAVYVKRVIGMPGDTVRYTSSGKLYVNNKLVKQTYLKNKYQQTTGSFMANSHSKFTGWTLNSLSHDQGWAKSVTNNTVPKGYYFVLGDHRSVSNDGRYWGLVPKSKMIGVVKAWPWQNRKQYINNYQEGHHHHHH | soluble
MSLFRGFGRSTLAKIGSTEISTEQFRQTYNDRLQQIGRQFGRPLTPDQARAIGIDRQVLQQTIAEAALDEDARRLGLGQSDADTMKSILEDPNFKGANGQFDANRFQQLIRQFGFTEQRYLAEQRRVALRRQIAGSLTAGLEAPKTLMQALSQFQSEERAIDYLKLTDAQAGTIAAPSPADLTAFYDSHKAQFRAPEYRKISFLVVTPESIAKWAEVSDADAQKLFEQRKDKLSTPEKRQLLQIVFPSVEEAQAGRAKIASGTSFADLAKERGVKPADLDLGLVSQSEMLDQKVAAAAFALPLNEVSQPVQGQFGTVLLEVTKIETEGHHHHHH | soluble
MFVTQQLKLMGTVIDIQIESDKACQQLSRVIDLLYTYKNRFSANDSNSELMAINQAAGVKPVSVHSDLFNLIQIGKAHSLSTPSNLNIAIGPLVQAWRIGFEDARVPSHNLISQQLALTDPRQVLIDDKKQTVFLQQVGMALDLGALAKGYITDKIMAYLIEDGIDSALINLGGNVRVHGPNPKSPDKTFRIGIQKPDAKRGQHLGVIKVNNHSVVTSGIYERQFTSKGKQYHHILDRQTGYPIETDMLSLTIMAPSSFYCDIWTTRLFGLDSSMIITLLNTFDNIEGLLVTRKHHVLMSNGLRHYFQPYYH | not soluble
